Measured values as given in patent US11572568B2, “Regulating alkaloids” (22nd Century Limited, LLC, priority 2006, dated 2023).

Key:
[1] = target: T1, Pig kidney diamine oxidase (Sus scrofa, UniProt Q9TRC7); conditions: in words
T1 sequence (Q9TRC7 25-755): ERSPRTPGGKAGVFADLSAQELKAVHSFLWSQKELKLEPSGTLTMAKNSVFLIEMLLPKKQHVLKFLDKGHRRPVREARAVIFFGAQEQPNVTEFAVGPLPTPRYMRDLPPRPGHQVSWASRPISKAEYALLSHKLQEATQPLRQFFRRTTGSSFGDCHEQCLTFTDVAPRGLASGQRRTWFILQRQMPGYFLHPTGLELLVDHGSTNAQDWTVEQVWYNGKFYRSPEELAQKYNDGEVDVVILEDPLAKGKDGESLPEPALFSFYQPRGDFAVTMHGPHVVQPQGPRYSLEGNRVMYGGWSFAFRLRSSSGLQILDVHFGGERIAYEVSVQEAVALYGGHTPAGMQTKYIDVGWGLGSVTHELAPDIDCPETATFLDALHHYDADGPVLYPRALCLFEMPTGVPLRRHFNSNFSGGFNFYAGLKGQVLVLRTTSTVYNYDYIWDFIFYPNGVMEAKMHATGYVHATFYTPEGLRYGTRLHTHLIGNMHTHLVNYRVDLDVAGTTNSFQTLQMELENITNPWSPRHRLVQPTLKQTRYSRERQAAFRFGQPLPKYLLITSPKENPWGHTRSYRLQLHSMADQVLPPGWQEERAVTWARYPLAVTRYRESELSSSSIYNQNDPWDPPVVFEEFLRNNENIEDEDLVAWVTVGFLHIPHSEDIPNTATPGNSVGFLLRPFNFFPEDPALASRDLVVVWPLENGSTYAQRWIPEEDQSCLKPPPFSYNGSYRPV
Experimental: (§1) Purified diamine oxidase from pig kidney was purchased from Sigma. Enzyme activities were calculated by data analysis software, Kaleida Graph (HULINKS).

[2] = target: T2, Recombinant tobacco MPO1 (Nicotiana tabacum, UniProt A0A1S4BDC4); conditions: for V/K: substrate of recombinant tobacco MPO1
T2 sequence (A0A1S4BDC4 1-790): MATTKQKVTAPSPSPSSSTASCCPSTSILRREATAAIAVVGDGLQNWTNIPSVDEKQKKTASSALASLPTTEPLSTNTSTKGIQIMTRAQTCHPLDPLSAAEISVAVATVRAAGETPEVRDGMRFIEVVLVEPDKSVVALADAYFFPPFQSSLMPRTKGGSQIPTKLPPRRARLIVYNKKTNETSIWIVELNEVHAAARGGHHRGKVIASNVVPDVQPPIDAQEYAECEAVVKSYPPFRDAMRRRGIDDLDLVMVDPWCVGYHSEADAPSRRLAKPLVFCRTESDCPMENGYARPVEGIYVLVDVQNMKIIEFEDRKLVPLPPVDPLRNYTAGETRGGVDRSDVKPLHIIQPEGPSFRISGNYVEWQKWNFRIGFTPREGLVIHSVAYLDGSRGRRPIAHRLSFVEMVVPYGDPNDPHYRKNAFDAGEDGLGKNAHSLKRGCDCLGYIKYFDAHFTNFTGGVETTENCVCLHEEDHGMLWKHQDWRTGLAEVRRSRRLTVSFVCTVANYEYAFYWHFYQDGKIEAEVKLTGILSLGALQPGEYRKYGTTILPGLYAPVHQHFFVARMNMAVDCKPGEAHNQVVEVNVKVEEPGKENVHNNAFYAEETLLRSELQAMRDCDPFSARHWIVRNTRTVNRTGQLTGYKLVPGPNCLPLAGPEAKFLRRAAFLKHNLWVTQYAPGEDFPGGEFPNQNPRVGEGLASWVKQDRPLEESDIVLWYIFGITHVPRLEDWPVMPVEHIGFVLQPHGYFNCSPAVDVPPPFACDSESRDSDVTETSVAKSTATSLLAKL
Experimental: The PCR product was first cloned into a pGEM-T Easy vector (Promega), then excised as the EcoRV-Not1 fragment, and finally cloned into the expression vector pGEX-6P (GE Healthcare). The resultant plasmid pGEX-MPO1 was introduced into the E. coli strain Rosetta (DE3) (Novagen). The recombinant bacteria were cultured in LB medium containing 50 μg/ml carbenicillin at 37° C. until the OD600 of the culture reached 0.4, IPTG and CuSO4 were added to the culture to the final concentrations of 0.1 mM and 4 mM, respectively, and the cultures were incubated at 16° C. for 16 h. Bacteria were harvested by centrifugation, suspended in a PBS buffer containing 10 mM DTT and 1 mg/ml lysozyme, incubated at 4° C. for 2 h, and then sonicated for 3 min. After centrifugation of the homogenate, the recombinant MPO1 protein fused to GST was purified from the supernatant by GSTrap HP (GE Healthcare) according to the manufacturer's protocol.

[3] = test system: NCCCCCN; test: purified protein, by the assay type; conditions: other: substrate of recombinant tobacco MPO1 (GST fusion, purified from E. coli)
Experimental: as §1

[4] = test system: NCCCN; test: purified protein, by the assay type; conditions: other: substrate of recombinant tobacco MPO1 (GST fusion, purified from E. coli)
Experimental: as §1

[5] = substrate: CNCCCCN; test: purified protein, by the assay type; conditions: other: substrate of purified pig kidney diamine oxidase (Sigma)
Experimental: as §1

[6] = substrate: NCCCCCN; test: purified protein, by the assay type; conditions: other: substrate of purified pig kidney diamine oxidase (Sigma)
Experimental: as §1

[7] = substrate: NCCCCN; test: purified protein, by the assay type; conditions: other: substrate of purified pig kidney diamine oxidase (Sigma)

Q: `NCCCCN` [Putrescine] was tested. Which substrate preference [1] did it give?
A: preferred putrescine over N-methylputrescine

Q: What about the V/K [2] of the same molecule?
A: 3600

Q: With `CCCCN` [n-Butylamine] as the molecule, how does the Km ([2]; substrate of recombinant tobacco MPO1 (GST fusion, purified from E. coli)) read?
A: 249 ± 180 µM

Q: Which V/K [2] does the source give for `CNCCCN` [N-Methyl-1,3-diaminopropane] here?
A: 13000

Q: What does the source list for “Recombinant tobacco MPO1 (Nicotiana tabacum)”?
A: Km [3]: 362 ± 320 µM; Km [4]: 158 ± 100 µM

B1: Pig kidney diamine oxidase (Sus scrofa) (protein)
chain: T1 sequence (Q9TRC7 25-755)
Q: Which results are given for B1?
A: Km [5]: 657 ± 240 µM; Km [6]: 915 ± 420 µM; Km [7]: 228 ± 90 µM
